Source: patent US20190388508A1

Columns and labels:
TNFR2, P20333 [1] = target: T1, TNFR2, P20333; test: method not stated; details: remark: other sources report otherwise
T1 chain: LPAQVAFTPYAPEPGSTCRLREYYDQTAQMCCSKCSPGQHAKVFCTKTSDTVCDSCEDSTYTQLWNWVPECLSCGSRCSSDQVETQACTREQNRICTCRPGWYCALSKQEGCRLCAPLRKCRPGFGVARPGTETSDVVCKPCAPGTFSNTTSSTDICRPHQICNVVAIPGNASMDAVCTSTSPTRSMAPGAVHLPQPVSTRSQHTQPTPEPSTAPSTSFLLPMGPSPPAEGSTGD

TNFR2, P20333 [2] = target: T1, TNFR2, P20333; test: method not stated; reference TNFα; details: remark: other sources report otherwise

Kd (TNFR2, P20333 [1]): 1.52 nM | fold higher binding affinity than TNFα (TNFR2, P20333 [2]): 600 fold
B1: Progranulin (PGRN), P28799 18-593 (ligand)
chain: TRCPDGQFCPVACCLDPGGASYSCCRPLLDKWPTTLSRHLGGPCQVDAHCSAGHSCIFTVSGTSSCCPFPEAVACGDGHHCCPRGFHCSADGRSCFQRSGNNSVGAIQCPDSQFECPDFSTCCVMVDGSWGCCPMPQASCCEDRVHCCPHGAFCDLVHTRCITPTGTHPLAKKLPAQRTNRAVALSSSVMCPDARSRCPDGSTCCELPSGKYGCCPMPNATCCSDHLHCCPQDTVCDLIQSKCLSKENATTDLLTKLPAHTVGDVKCDMEVSCPDGYTCCRLQSGAWGCCPFTQAVCCEDHIHCCPAGFTCDTQKGTCEQGPHQVPWMEKAPAHLSLPDPQALKRDVPCDNVSSCPSSDTCCQLTSGEWGCCPIPEAVCCSDHQHCCPQGYTCVAEGQCQRGSEIVAGLEKMPARRASLSHPRDIGCDQHTSCPVGQTCCPSLGGSWACCQLPHAVCCEDRQHCCPAGYTCNVKARSCEKEVVSAQPATFLARSPHVGVKDVECGEGHFCHDNQTCCRDNRQGWACCPYRQGVCCADRRHCCPAGFRCAARGTKCLRREAPRWDAPLRDPALRQLL
